The nature of data set [1]: Stability assay in human plasma (UPLC-FLR). It counts as in vitro ADME. To be noted: 90% human plasma; for stability in human plasma: within 6 h; for remaining at 72 h, 20 nM: human plasma (90%), 37° C., read-out: remaining amount after 72 h of incubation. The procedure:
FAM-labeled tri-GalNAc ligands were prepared with sterile water with final concentration of 200 nM. […] At the end of incubations, each mixture was added 300 μl of methanol to quench the reaction. The quenched samples were centrifuged at 20,000×g for 5 min and the supernatant was further filtered with 0.45 μm filters (Merck Millipore) to remove debris. The filtered samples were measured by UPLC-FLR detector (Waters, MA, USA).
5-FAM-CPMB-0013 (ID013), 5-FAM-CPMB-0023 (ID023) and commercialized tri-GalNAC were incubated with 90% of human plasma for different time points. The amount of each ligand was analyzed and quantified by UPLC system.

Data set [2] is described as follows: Cytotoxicity, viability of HepG2 cells by Cell Counting Kit-8 (CCK-8). It counts as cell-based. To be noted: human, HepG2, 1.5625-50 μM, read-out: survival ratio of cells. The procedure: The cytotoxicity effect of cyclic peptide-tri-GalNAc were evaluated with the viability of HepG2 cells and analyzed by Cell Counting Kit-8 (CCK-8) (Dojindo Laboratories, Japan). The assay was performed according to manufacturer's protocol. Briefly, HepG2 were seeded in 96-well plates with a density of 6×10^4 cells per well and incubated at 37° C. with 5% CO2. As cells reached 70% confluence, medium was changed to MEM with 2% FBS and serial diluted cyclic peptide-tri-GalNAc with final concentration of 50, 25, 12.5, 6.25, 3.125 and 1.5625 μM were treated. After 24 h of treatment, 10 μL of CCK-8 solution was added to each well, and incubated for 1˜4 h at 37° C. The absorbance at 450 nm was measured by microplate reader (Thermo scientific, Multiskan sky, MA, USA). The survival ratio of cells treated with ID013, ID023 and commercialized tri-GalNAC are from 97˜100%.
A general note: Formazan colour is commonly taken as a measure of viable cells.

Data set [3] concerns the target T1, asialoglycoprotein receptor (ASGPR) on HepG2 cells (human, UniProt P07306 1-291; P07307 1-311).
T1 construct: whole, on cells; also called ASGPR receptor on liver cells
T1 sequence (looked up) 1: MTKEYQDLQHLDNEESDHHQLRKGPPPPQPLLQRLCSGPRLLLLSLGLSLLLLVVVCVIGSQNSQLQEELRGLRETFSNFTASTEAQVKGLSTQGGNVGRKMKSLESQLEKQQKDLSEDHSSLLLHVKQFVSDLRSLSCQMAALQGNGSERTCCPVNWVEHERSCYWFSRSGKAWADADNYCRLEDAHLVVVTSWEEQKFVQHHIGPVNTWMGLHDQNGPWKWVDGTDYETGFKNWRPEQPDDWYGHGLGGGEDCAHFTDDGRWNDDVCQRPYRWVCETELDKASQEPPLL
T1 sequence (looked up) 2: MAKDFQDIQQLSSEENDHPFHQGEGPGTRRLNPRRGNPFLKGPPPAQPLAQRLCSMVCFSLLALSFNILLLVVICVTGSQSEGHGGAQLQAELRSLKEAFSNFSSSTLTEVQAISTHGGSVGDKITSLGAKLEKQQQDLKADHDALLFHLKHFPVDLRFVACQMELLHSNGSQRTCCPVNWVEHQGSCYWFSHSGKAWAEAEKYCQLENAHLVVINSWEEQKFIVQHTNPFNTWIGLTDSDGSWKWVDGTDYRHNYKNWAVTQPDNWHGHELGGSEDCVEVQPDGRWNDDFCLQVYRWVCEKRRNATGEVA
The data set is described as follows: flow cytometry titration on HepG2 cells (% FAM-positive cells, 1.6-200 nM, 24 h). The procedure:
Cells were seeded in 24-well plates with a density of 1.5×10⁵ cells per well and incubated under 37° C., 5% CO₂. After 18 h of incubation, media were replaced to MEM with 2% FBS and FAM-labeled ligands were added with final concentrations of 1.6, 8, 40 or 200 nM. After 24 h of incubation, cells were washed twice with 1×PBS and analyzed by LSRFortessa (BD Biosciences, NJ, USA). The binding efficiency was evaluated by the proportion of FAM positive cells.
HepG2 cell was treated by 14 cyclic peptide-tri-GalNAc ligand variants with serial diluted concentration of 1.6, 8, 40 or 200 nM. Commercialized tri-GalNAc used in Givosirna was used as positive control and cyclic peptide w/o tri-GalNAc was negative control. Among 14 variants, 5-FAM-CPMB-0013 (ID013), 5-FAM-CPMB-0023 (ID023) and 5-FAM-CPMB-0035 (ID035) had relatively higher binding ability as compared to others and commercialized tri-GalNAc. Equilibrium dissociation constant (kd) for 5-FAM-CPMB-0013 (ID013), 5-FAM-CPMB-0023 (ID023), 5-FAM-CPMB-0035 (ID035) and commercialized tri-GalNAC were 7.0, 8.6, 5.7 and 18 nM, respectively.
In general terms: In flow cytometry, cells or beads pass a laser one at a time.

Data set [4] has as its target asialoglycoprotein receptor (ASGPR) on HepG2 cells (human) (UniProt P07306). The data set is described as above.
The target is the same in data set [5]. The data set is described as follows: flow cytometry, % FAM-positive HepG2 cells after 24 h with 1.6 nM ligand.
The target is the same in data set [6]. The data set is described as follows: flow cytometry, % FAM-positive HepG2 cells after 24 h with 40 nM ligand.
Data set [7] has the same target. Description: flow cytometry, % FAM-positive HepG2 cells after 24 h with 8 nM ligand.
The target is the same in data set [8]. The data set is described as follows: flow cytometry, % FAM-positive HepG2 cells after 24 h with 200 nM ligand.
Data set [9] shares this target. Description: flow cytometry, % FAM-positive HepG2 cells after 24 h with 8 nM ligand; negative control.
For data set [10] the target is unchanged. The data set is described as follows: flow cytometry, % FAM-positive HepG2 cells after 24 h with 40 nM ligand; negative control.
The target is the same in data set [11]. The data set is described as follows: flow cytometry, % FAM-positive HepG2 cells after 24 h with 1.6 nM ligand; negative control.
Data set [12] shares this target. Description: flow cytometry, % FAM-positive HepG2 cells after 24 h with 200 nM ligand; negative control.

Square brackets hold non-standard residues; d marks the D form. Side chains are listed from the residue outwards. * marks the point of attachment. Gal‑3 = GalNAc linker: 4-(GalNAc-oxy)butanoic acid (3-acetamido-4,5-diacetoxy-6-(acetoxymethyl)tetrahydropyran-2-yl-oxy)butanoic acid; 5FAM = O=C1OC2(c3ccc(O)cc3Oc3cc(O)ccc32)c2ccc(C(=O)*)cc21; Linker2 = 6-aminohexyl amide linker; GalNAc = N-acetylgalactosamine

The term amount remaining denotes what is left of the initial amount, in per cent. One may read the Kd as a measure of binding affinity in units of concentration. The low end stands for higher affinity, the high end for lower affinity.

Turning to `CC(=O)N[C@H]1[C@H](OCCCC(=O)NCCCC[C@H]2NC(=O)CNC(=O)[C@@H](CCCCNC(=O)CCCO[C@@H]3O[C@H](CO)[C@H](O)[C@H](O)[C@H]3NC(C)=O)NC(=O)[C@@H](CCC(=O)NCCCCCCNC(=O)c3ccc4c(c3)C(=O)OC43c4ccc(O)cc4Oc4cc(O)ccc43)NC(=O)[C@@H](CCCCNC(=O)CCCO[C@@H]3O[C@H](CO)[C@H](O)[C@H](O)[C@H]3NC(C)=O)NC(=O)CNC2=O)O[C@H](CO)[C@H](O)[C@@H]1O` [5-FAM-CPMB-0023], in data set [1], the “stability in human plasma” value is listed as “highly stable” and the share remaining at 72 h, 20 nM stood at 85.8%. Besides, in [2], the viability at 24 h was 97 to 100%.

For `CC(=O)N[C@H]1[C@H](OCCCC(=O)NCCCC[C@@H]2NC(=O)CNC(=O)[C@H](CCCCNC(=O)CCCO[C@@H]3O[C@H](CO)[C@H](O)[C@H](O)[C@H]3NC(C)=O)NC(=O)[C@H](CCC(=O)NCCCCCCNC(=O)c3ccc4c(c3)C(=O)OC43c4ccc(O)cc4Oc4cc(O)ccc43)NC(=O)[C@H](CCCCNC(=O)CCCO[C@@H]3O[C@H](CO)[C@H](O)[C@H](O)[C@H]3NC(C)=O)NC(=O)CNC2=O)O[C@H](CO)[C@H](O)[C@@H]1O` [5-FAM-CPMB-0013], in data set [1], the “stability in human plasma” value was “highly stable” and the share remaining at 72 h, 20 nM was determined as 92.7%. For the same molecule, the viability at 24 h in data set [2] fell in the range of 97 to 100%.

B1: 5-FAM-CPMB-0013 (peptide)
peptide: KEKGKG
modifications: head-to-tail cyclic; each Lys side chain carries GalNAc via linker Gal-3; Glu side chain carries Linker2 (6-aminohexyl amide) with 5-FAM
notes: also called ID013
B1 yielded a dissociation constant Kd in data set [3] of 7 nM.

B2: 5-FAM-CPMB-0035 (peptide)
peptide: KEKGKG
modifications: head-to-tail cyclic; D-Glu; each Lys side chain carries GalNAc via linker Gal-5; D-Glu side chain carries Linker2 with 5-FAM
Turning to B2, the Kd in [4] was determined as 5.7 nM. Besides, the Efficiency (%) (proportion of FAM positive cells) is 11.1% in data set [5], 95.2% in data set [6], 63.2% in data set [7] and 99.5% in data set [8].

B3: 5-FAM-CPMB-0031-Ac (negative control) (peptide)
peptide: cyclo(K[dE]([Linker2-5FAM])KGKG)
modifications: also: Lys side chains: Gal-1 with suffix -Ac per table, 'w/o tri-GalNAc' per text
With B3, the Efficiency (%) (proportion of FAM positive cells) was determined as 0.1% in data set [9], 0.2% in [10], 0.1% in [11] and 0.4% in data set [12].

B4: 5-FAM-CPMB-0023 (peptide)
peptide: cyclo([dK]([Gal‑3-GalNAc])[dE]([Linker2-5FAM])[dK]([Gal‑3-GalNAc])G[dK]([Gal‑3-GalNAc])G)
In [4], B4 displayed a Kd of 8.6 nM. In addition, the Efficiency (%) (proportion of FAM positive cells) in [5] was found to be 6.2%; in data set [6] it was 91.2%; in data set [7], 47.2%; in data set [8], 99.2%.

(Values after patent publication US20240218023A1, “CYCLIC PEPTIDE-N-ACETYLGALACTOSAMINE (GALNAC) CONJUGATES FOR DRUG DELIVERY TO LIVER CELLS” (MICROBIO (SHANGHAI) CO., LTD., priority 2021, published 2024).)
